{"source": "paper PMC7490560", "origin": "cited, not measured here", "target": "KEAP1 (Homo sapiens) (UniProt Q14145)", "sequence (Q14145 whole entry)": "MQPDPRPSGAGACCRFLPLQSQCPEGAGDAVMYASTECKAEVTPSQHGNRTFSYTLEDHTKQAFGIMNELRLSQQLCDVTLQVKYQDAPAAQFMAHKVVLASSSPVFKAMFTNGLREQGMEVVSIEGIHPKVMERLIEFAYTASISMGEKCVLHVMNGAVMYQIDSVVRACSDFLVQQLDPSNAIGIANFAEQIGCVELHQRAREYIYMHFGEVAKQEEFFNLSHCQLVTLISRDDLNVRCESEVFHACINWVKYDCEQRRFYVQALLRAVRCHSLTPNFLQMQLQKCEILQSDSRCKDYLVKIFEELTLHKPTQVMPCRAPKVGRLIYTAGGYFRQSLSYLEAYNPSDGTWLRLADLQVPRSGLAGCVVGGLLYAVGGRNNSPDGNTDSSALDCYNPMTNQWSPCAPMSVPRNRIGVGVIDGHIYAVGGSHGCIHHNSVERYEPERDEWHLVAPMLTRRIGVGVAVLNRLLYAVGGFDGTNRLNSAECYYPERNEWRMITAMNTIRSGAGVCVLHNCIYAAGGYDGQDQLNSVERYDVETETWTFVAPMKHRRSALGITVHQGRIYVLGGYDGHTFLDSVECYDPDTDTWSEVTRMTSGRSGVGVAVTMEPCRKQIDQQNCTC", "note": "Several values for one entry are separate records, joined by “and”; a condition that tells them apart may be missing. Identical values can stand only once.", "data": [{"substance": "NRF2 (from UniProt Q16236)", "values": [{"measurement": "Kd", "value": "580 nM and 167 nM"}]}]}
